From patent US20160369006A1

Biological target: FcγRIIIA (CD16A) on transduced Jurkat cells (human) (UniProt P08637)
Assay: cell-based or functional assay
Set-up: EC50, NFAT-luciferase reporter in CD16A Jurkat cells with RMF-pulsed T2 cells (reverse signaling): unit not given beside the values

Chain of FcγRIIIA (CD16A) on transduced Jurkat cells (human) (P08637 17-254): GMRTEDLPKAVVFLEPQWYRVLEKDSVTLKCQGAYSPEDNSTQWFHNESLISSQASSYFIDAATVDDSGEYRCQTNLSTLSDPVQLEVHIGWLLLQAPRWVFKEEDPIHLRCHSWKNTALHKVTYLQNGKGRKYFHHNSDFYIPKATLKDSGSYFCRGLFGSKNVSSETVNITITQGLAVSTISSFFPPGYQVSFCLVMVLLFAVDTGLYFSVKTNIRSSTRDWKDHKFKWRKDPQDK

EC50, NFAT-luciferase reporter in CD16A Jurkat cells with RMF-pulsed T2 cells (reverse signaling) | fold decrease in EC50 relative to wildtype ESK1, CD16A reporter | Substance
> 10000 | – | ESK1 containing D265A/P329A mutations in the Fc domain (ESK1 DAPA) (antibody)
0.17 | 5 fold | ESKM having 100% reduction in fucosylation (GlymaxX technology) (antibody)
